Assay [1] concerns the target hemagglutinin (HA) of H1N1 influenza A strain A/Fort Monmouth/1/1947, mature HA1/HA2 trimer (Influenza A virus H1N1, strain A/Fort Monmouth/1/1947). The assay is described as follows: crystal structure.
The target in assay [2] is hemagglutinin (HA) of H1N1 influenza A strain A/Melbourne/1/1946, mature HA1/HA2 trimer (Influenza A virus H1N1, strain A/Melbourne/1/1946). The assay is described as follows: crystal structure.
In assay [3] the target is hemagglutinin (HA) of H1N1 influenza A strain A/Denver/57/1957, mature HA1/HA2 (Influenza A virus H1N1, strain A/Denver/57/1957). The assay is described as follows: crystal structure.
The target in assay [4] is hemagglutinin (HA) of H1N1 influenza A strain A/Netherlands/002P1/1951, mature HA1/HA2 trimer (Influenza A virus H1N1, strain A/Netherlands/002P1/1951). The assay is described as follows: crystal structure.
Assay [5] addresses hemagglutinin (HA) of H1N1 influenza A strain A/Hickox/JY2/1940, mature HA1/HA2 trimer (Influenza A virus H1N1, strain A/Hickox/JY2/1940) (UniProt Q0HD60). The assay is described as follows: crystal structure.
The target of assay [6] is hemagglutinin (HA) of H1N1 influenza A strain A/Iowa/1943 (Influenza A virus H1N1, A/Iowa/1943 …, UniProt A4GCK8, strain). The assay is described as follows: SEC. As to conditions: both partners purified.

Take “hemagglutinin (HA) of H1N1 influenza A strain A/Fort Monmouth/1/1947, mature HA1/HA2 trimer (natural protein)”: the stoichiometry N in assay [1] stood at 3.
In the case of “hemagglutinin (HA) of H1N1 influenza A strain A/Melbourne/1/1946, mature HA1/HA2 trimer (natural protein)”, in assay [2], the stoichiometry N turned out to be 3.
With “hemagglutinin (HA) of H1N1 influenza A strain A/Denver/57/1957, mature HA1/HA2 (natural protein)”, in assay [3], the stoichiometry N turned out to be 3.
The molecule “hemagglutinin (HA) of H1N1 influenza A strain A/Netherlands/002P1/1951, mature HA1/HA2 trimer (natural protein)” showed a stoichiometry N in assay [4] of 3.
In assay [5], “hemagglutinin (HA) of H1N1 influenza A strain A/Hickox/JY2/1940, mature HA1/HA2 trimer (from UniProt Q0HD60) (natural protein)” showed a stoichiometry N of 3.

B1: anti-influenza head-binding antibody C05 fragment antigen binding (Fab) (Fab, V domains shown)
VH: EVQLQESGGGLVQPGESLRLSCVGSGSSFGESTLSYYAVSWVRQAPGKGLEWLSIINAGGGDIDYADSVEGRFTISRDNSKETLYLQMTNLRVEDTGVYYCAKHMSMQQVVSAGWERADLVGDAFDVWGQGTMVTVSS
VL: DIQLTQSPSSLSASVGDRVTLTCQASQDIRKFLNWYQQKPGKGPKLLIYDASNLQRGVPSRFSGGGSGTDFTLIISSLQPEDVGTYYCQQYDGLPFTFGGGTKVVIK
notes: also called C05 Fab; C05 antibody; not shown: His6, C-terminal, kept
For B1, the binding result in assay [6] was “binds”.

Usually stoichiometry N stands for a count of units in the complex or per binding partner.
